Measured values published in patent US20210070875A1.
Positions count from the first letter of the chain named. Values belong to the binder of their own block, whether it stands above or below them.

Legend:
Assay in all cases: ELISA, polypeptide coated at 1.0 µg/mL
[1] = target: C5aR extracellular N-terminus polypeptide (UniProt P21730)
[2] = target: C5aR polypeptide-03 (UniProt P21730)
[3] = target: C5aR polypeptide-04 (UniProt P21730)
[4] = target: C5aR polypeptide-05 (UniProt P21730)

OD450 nm [1]: 0.22 OD450 nm | OD450 nm [2]: 0.31 OD450 nm | OD450 nm [3]: 2.52 OD450 nm | OD450 nm [4]: 0.56 OD450 nm
B1: 5F8E2C11 (antibody, V domains shown)
VH: QVQLRQSGPGLVQPSQSLSITCTVSGFSLTSYGVHWVRQSPGKGLEWLGVIWSGGSTDYNAAFISRLSISKDYSKSQIFLTMNSLQTDDTAIYYCARNSRLGNCFDYWGQGTTLTVSS
VL: DIVMSQSPSSLAVSAGEKVTMSCKSSQSLLNSRTRKNYLAWYQQKPGQSPKLLIYWASTRESGVPDRFTGSGSGTDFTLTISSVQAEDLAVYYCKQSYNLPAFGGGTKLEIK

OD450 nm [1]: 0.06 OD450 nm | OD450 nm [2]: 0.06 OD450 nm | OD450 nm [3]: 2.46 OD450 nm | OD450 nm [4]: 0.41 OD450 nm
B2: 9D5A12G7 (antibody, V domains shown)
VH: QVQLKQSGPGLVQPSQSLSITCTVSGFSLTSYGVHWVRQSPGKGLEWLGVIWSGGSTDYNAAFISRLSISKDNSKSQVFFKMNSLQADDTAIYYCARNGLLGNAMDYWGQGTSVTVSS
VL: B1 VL with N31S, A86T, P101L, A102T, G105A, K108T, I111L

OD450 nm [1]: 2.5 OD450 nm | OD450 nm [2]: 0.05 OD450 nm | OD450 nm [3]: 0.1 OD450 nm | OD450 nm [4]: 0.08 OD450 nm
B3: 8B5D1A9 (antibody, V domains shown)
VH: QVQLKQSGAELVKPGASVKISCKTSGYIFTDYYINWMKQRPGQGLEWIGKIGPGSGTTFYNEKFKGKATLTADKSSTTLYMQLSSLTAEDSAVYFCTRRGYYSSSYFYWGQGTTLTVSS
VL: DIVMTQSPSSLSVSAGEKVIMSCKSSQSLLNSERQKNYLAWYQQKPGQSPKLLIYGASTRESGVPDRFTGSGSGTDFTLTISSVQAEDLAVYYCLNDHSYPLTFGAGTKLELK

OD450 nm [1]: 0.05 OD450 nm | OD450 nm [2]: 0.06 OD450 nm | OD450 nm [3]: 2.34 OD450 nm | OD450 nm [4]: 0.29 OD450 nm
B4: 2A12B2B2 (antibody, V domains shown)
VH: QVQLQQPGADLVKPGASVKMSCKASGYILTTYWITWVKQRPGQGLEWIGDIHPGSGSTKYNEKFKSKATLTVDTSSSTAYMQLTRLSSEDSAVYYCARRDYWGQGTTLTVSS
VL: DIQMTQTTSSLSASLGDKVTISCRASQDISNYLSWYQQKPDGTVKLLIYWISRLHSGVPSRFSGSGSGTDFSLTISNLEQEDIATYFCQQGNSLPPTFGGGTKLEVK

OD450 nm [1]: 0.12 OD450 nm | OD450 nm [2]: 0.08 OD450 nm | OD450 nm [3]: 0.1 OD450 nm | OD450 nm [4]: 0.06 OD450 nm
B5: 43E8F5B6 (antibody, V domains shown)
VH: EVQLQQSGPELVKPGASVKISCKASGYTFTDYYMSWMKQSHGKSLEWIGDINPNNGDNIYNQKFKGKATLTVDRSSSTAYMDLRSLTSEDSAVYYCARWYYYVSSFSYWYFDVWGTGTTVTVSS
VL: EIVLTQSPTTMAASPGEKITITCSATSSINSNYLHWYQQKPGFSPKLLIYRTSNLASGVPARFSGSGSGTSYSLTIGTMEAEDVATYYCQQGRTIPRTFGSGTKLEIK
